Patent publication US20230106715A1 (BIOSION, published 2023)
Like-named read-outs stand apart in the source and are kept apart here.

Columns and labels:
[1] = target: T1, cynomolgus monkey Siglec15-his protein (cynomolgus monkey); test: indirect ELISA on coated cynomolgus Siglec15-his
T1 construct: In house made; also called Cynomolgus Siglec15-his; cynomolgus Siglec15
T1 chain: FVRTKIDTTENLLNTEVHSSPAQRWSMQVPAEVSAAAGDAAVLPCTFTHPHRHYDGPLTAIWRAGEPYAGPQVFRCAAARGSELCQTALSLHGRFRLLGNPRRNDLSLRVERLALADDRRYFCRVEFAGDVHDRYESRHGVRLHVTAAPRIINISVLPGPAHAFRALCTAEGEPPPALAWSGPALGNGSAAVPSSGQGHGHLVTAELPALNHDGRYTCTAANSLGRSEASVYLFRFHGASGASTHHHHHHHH
Experimental: (§1) The anti-Siglec15 antibodies' cross-reactions to cynomolgus or mouse Siglec15 proteins were measured. Briefly, 96-well micro plates were coated with 100 μl of 2 μg/ml cynomolgus Siglec15-his protein (in house made with SEQ ID NO: 21), or 2 μg/ml mouse Siglec15-his protein (in house made with SEQ ID NO: 22) in carbonate/bicarbonate buffer (pH 9.6) for 2 hours at 37° C. ELISA plates were washed once with wash buffer (PBS+0.05% v/v Tween-20, PBST) and then blocked with 200 μl/well blocking buffer (5% w/v non-fatty milk in PBST) overnight at 4° C. Plates were washed 4 times and incubated with 100 μl serially diluted anti-Siglec15 antibodies of the disclosure or controls (starting at 66.7 nM, 5-fold serial dilution in PBST with 2.5% w/v non-fatty milk) for 40 minutes at 37° C. […] The reaction was stopped 4 minutes later at room temperature with 50 μl 1M H₂SO₄, and the absorbance of each well was read on a microplate reader using dual wavelength mode with 450 nm for TMB and 630 nm as the reference wavelength, then the OD (450-630) values were plotted against antibody concentration. Data was analyzed using Graphpad Prism software and EC₅₀ values were reported.

[2] = target: T2, mouse Siglec15-his protein (mouse); test: indirect ELISA on coated mouse Siglec15-his
T2 construct: In house made
T2 chain: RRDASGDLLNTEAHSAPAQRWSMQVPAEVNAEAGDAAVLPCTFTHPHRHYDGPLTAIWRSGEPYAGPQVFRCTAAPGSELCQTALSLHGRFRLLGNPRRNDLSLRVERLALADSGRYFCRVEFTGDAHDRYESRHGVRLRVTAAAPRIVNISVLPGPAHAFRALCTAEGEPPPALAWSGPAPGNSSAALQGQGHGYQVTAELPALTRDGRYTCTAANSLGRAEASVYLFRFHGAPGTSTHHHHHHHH
Experimental: as §1

[3] = target: T3, human Siglec15 on human-siglec15-2D3-1E1 cells (human, UniProt Q6ZMC9 20-328); test: cell based binding FACS on human-siglec15-2D3-1E1 cells
T3 construct: whole, on cells; Transfected HEK-293 cells; also called cell surface human Siglec15
T3 sequence (looked up): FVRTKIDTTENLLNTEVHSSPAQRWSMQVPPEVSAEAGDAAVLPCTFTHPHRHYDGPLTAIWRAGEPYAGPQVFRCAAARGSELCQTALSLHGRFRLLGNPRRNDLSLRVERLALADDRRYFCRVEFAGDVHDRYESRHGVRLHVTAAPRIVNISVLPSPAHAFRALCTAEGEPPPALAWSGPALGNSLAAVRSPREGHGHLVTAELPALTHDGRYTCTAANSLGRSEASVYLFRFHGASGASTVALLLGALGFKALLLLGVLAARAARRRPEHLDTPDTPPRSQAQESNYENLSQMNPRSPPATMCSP
Experimental: (§2) The binding activities of the anti-Siglec15 antibodies to cell surface Siglec15 were tested by flow cytometry (FACS), using in-house prepared human-siglec15-2D3-1E1 cells expressing human Siglec15 (amino acid residues Met1-Pro328 of uniprot #Q6ZMC9) on cell membranes. The human-siglec15-2D3-1E1 cells were prepared by transfecting HEK-293 cells (ATCC #CRL-1573) with pCMV-T-P plasmids inserted with human Siglec15 coding sequence between EcoRI and XbaI sites, following the instruction of lipofectamine 3000 transfection reagent (Thermo Fisher). The human-siglec15-2D3-1E1 cells were harvested from cell culture flasks, washed twice and re-suspended in phosphate buffered saline (PBS) containing 2% v/v Fetal Bovine Serum (FACS buffer). 2×10⁵ cells per well in 96 well-plates were incubated in 100 μL serially diluted anti-Siglec15 antibodies or controls (starting at 66.67 nM, 5-fold serial dilution) in FACS buffer for 40 minutes on ice. […] Following a 40-minute incubation at 4° C. in dark, cells were washed three times and re-suspended in FACS buffer. Fluorescence was measured using a Becton Dickinson FACS Canto II-HTS equipment. Data was analyzed using Graphpad Prism software and EC₅₀ values were reported.

[4] = target: T3, human Siglec15 on …; test: as above; remark: listed apart in the source
Experimental: as §2

B1: anti-Siglec15 benchmark (ch5G12) (antibody, human IgG1, kappa, V domains shown)
VH: QVQLQQPGAELVKPGASVKMSCKASGYTFTSYWITWVIQRPGQGLEWIGDIYCGSDTMHYNEKFKNKATLTVDTSSSTAYMQLSSLTSEDSAVYYCARWWDYGSSYDYFDYWGQGTTLTVSS
VL: DIKMTQSPSSMYASLGERVTITCKASQDINSYLSWFQQKPGKSPKTLIYRANRLVDGVPSRFSGSGSGQDYSLTISSLEYEDMGIYYCLQYDEFPYTFGGGTKLEIKR
notes: ch5G12 (US 20190202912A1); also called BM; Siglec15-ch5G9
[1]
  EC50: 0.461 nM
[2]
  EC50: 0.419 nM
[3]
  EC50: 15.5 nM
[4]
  EC50: 19.8 nM
